Experimental data reported in patent US20220362278A1, “RENAL TARGETING-TYPE DRUG DELIVERY CARRIER HAVING EXCELLENT BIODEGRABILITY” (priority 2019, published 2022).

How the values were obtained:
[1] = Mean particle size and zeta potential by Zetasizer Nano ZS; format: physicochemical; settings: for physicochemical properties (particle size and zeta potential) of the labeled compound versus the unlabeled compound: stated in words
From the text: 1.1 equivalents of Boc-Ser(t-Bu)-OH (manufactured by Watanabe Chemical Industries, Ltd.), 1.1 equivalents of 1-[bis(dimethylamino)methylene]-1H-benzotriazolium 3-oxide hexafluorophosphate (HBTU) (manufactured by Merck Millipore), 1.1 equivalents of anhydrous 1-hydroxy-1H-benzotriazole (HOBt) (manufactured by Watanabe Chemical Industries, Ltd.) and 2.2 equivalents of N,N-diisopropyl ethylamine (DIPEA), each to the total number of amino groups of poly-L-lysine hydrobromide (manufactured by Sigma-Aldrich Co. LLC., P6516-100M, number average molecular weight: 4000-15000) were mixed in DMF/DMSO (1:1). Then, the reaction mixture was reacted by stirring at room temperature until the ninhydrin test yielded negative results on TLC analysis. After completion of coupling, this solution was purified by precipitation with diethylether three times. The precipitates thereof were dissolved in a trifluoroacetic acid (TFA) cocktail (95% TFA, 2.5% […] (TIS) and 2.5% purified water) to deprotect the Boc group and t-Bu group (protecting group of oxygen atom of serine). Then, the reaction mixture was incubated at room temperature for 90 min. After completion of deprotection, the reaction mixture was purified by precipitation with diethylether three times.

[2] = Releasability of serine and biodegradability: PD-10 fractionation of kidney homogenate radioactivity; settings: 3 hr after intravenous administration
Procedure: The kidney after blood removal was immediately ice-cooled, purified water (4 mL) was added and homogenized. A saturated potassium chloride solution (1 mL) was added to the prepared kidney homogenate, and the mixture was allowed to stand at 4° C. overnight and then centrifuged. The centrifuged supernatant (1 mL) was developed on a PD-10 column with 0.1 M acetate buffer (pH 6.0), and the radioactivity of the fraction was measured.

[3] = test system: B16-BL6/Luc cells; assay: Renal cell carcinoma proliferation suppressive activity in renal cell carcinoma model mouse; format: in vivo, C57BL/6J mouse
Procedure: The renal cell carcinoma model was produced by injecting firefly luciferase gene-labeled B16-BL6 cells (B16-BL6/Luc cells, 2.5×10^5 cells) together with Matigel (registered trade mark) Matrix in the renal cortex of the right kidney of C57BL/6J mouse. […] 14 days after tumor inoculation, 2.5 mg of D-Luciferin was intraperitoneally injected into the mouse under anesthesia by intraperitoneal injection of triple anesthesia (medetomidine (0.3 mg/kg), midazolam (2 mg/kg), butorphanol (2.5 mg/kg)), and imaged using LAS-4000 IVIS Imaging System (FUJIFILM, Japan). Then, the mouse was euthanized, the kidneys were isolated, and the luciferase activity in the tissue was measured with a luminometer (Lumat LB9507, EG&G Berthold, Bad Wild-bad, Germany). From the obtained luciferase activity, the number of cancer cells in the kidney was calculated using a regression line. In addition, the body weight of the mouse was measured immediately after the tumor inoculation administration and 14 days after the tumor inoculation.

[4] = Acute kidney toxicity after administration; format: in vivo, ddY mouse; settings: positive control, 8 mg/kg s.c., bred for 2 days
Procedure: The severity of renal damage was evaluated from the plasma creatinine level and plasma urea nitrogen concentration 6 days after the start of administration. The plasma creatinine concentration was measured using a commercially available measurement kit (LabAssay, manufactured by Wako Pure Chemical Industries, Ltd.). Plasma urea nitrogen concentration was measured using a commercially available measurement kit (DIUR-100, manufactured by BioAssySystem). Mercury chloride was subcutaneously injected at 8 mg/kg, the group bred for 2 days was used as a positive control, and the results were compared.

Compound: ^111In-labeled PAMAM(G3)
- mean particle size ([1]; PBS (pH 7.4), 1 mg/mL): 4.20±0.09 nm
- zeta potential ([1]; PBS (pH 7.4), 1 mg/mL): 4.56±0.81 mV
- physicochemical properties (particle size and zeta potential) of the labeled compound versus the unlabeled compound [1]: also the same

Compound: ^111In-labeled poly-L-lysine
- decomposition in the kidney [2]: easily decomposed in the kidney
- radioactivity in high / low molecular weight fraction, kidney homogenate ([2]; PD-10 column): mainly on the low molecular weight fraction side
- physicochemical properties (particle size and zeta potential) of the labeled compound versus the unlabeled compound [1]: the same as those of poly-L-lysine

Compound: FITC-labeled serine-modified poly-L-lysine [FITC-labeled compound (Ia)]
- physicochemical properties (particle size and zeta potential) of the labeled compound versus the unlabeled compound [1]: the same as those of compound (Ia)

Compound: ^111In-labeled serine-modified PAMAM(G3)
- physicochemical properties (particle size and zeta potential) of the labeled compound versus the unlabeled compound [1]: also the same

Compound: ^90Y-labeled serine-modified poly-L-lysine [^90Y-labeled compound (Ia)]
- luciferase luminescence derived from cancer cells ([3]; 14 days after tumor inoculation, vs PBS, FIG. 9(B)): remarkably suppressed as compared with that of mouse administered with PBS
- growth of the number of cancer cells in the kidney ([3]; i.v. immediately after tumor inoculation, 14 days after inoculation, vs PBS, FIG. 9(A)): remarkably suppressed
- body weight of mouse ([3]; immediately after and 14 days after tumor inoculation, FIG. 9(C)): did not affect

Compound: [Cl][Hg][Cl] [mercury chloride, Mercury chloride]
- plasma creatinine level ([4]; FIG. 8(A)): increase
- plasma urea nitrogen concentration ([4]; FIG. 8(B)): increase
- histological section of kidney tissue ([4]; FIG. 8(C)): infiltration and necrosis of inflammatory cells and damaged cells were observed

Compound: ^111In-labeled serine-modified poly-L-lysine [^111In-labeled compound (Ia)]
- physicochemical properties (particle size and zeta potential) of the labeled compound versus the unlabeled compound [1]: the same as those of compound (Ia)
